# The DeepSol protein solubility set
# Experiment: soluble on expression in E. coli; label from the status in PepcDB or PDB records
row,Sequence,soluble on expression in E. coli
1,MEKEIKEKNLPLELTLVEASPRVGGKIQTVKKDGYIIERGPDSFLERKKSAPQLVKDLGLEHLLVNNATGQSYVLVNRTLHPMPKGAVMGIPTKIAPFVSTGLFSLSGKARAAMDFILPASKTKDDQSLGEFFRRRVGDEVVENLIEPLLSGIYAGDIDKLSLMSTFPQFYQTEQKHRSLILGMKKTRPQGSGQQLTAKKQGQFQTLSTGLQTLVEEIEKQLKLTKVYKGTKVTKLSHSGSCYSLELDNGVTLDADSVIVTAPHKAAAGMLSELPAISHLKNMHSTSVANVALGFPEGSVQMEHEGTGFVISRNSDFAITACTWTNKKWPHAAPEGKTLLRAYVGKAGDESIVDLSDNDIINIVLEDLKKVMNINGEPEMTCVTRWHESMPQYHVGHKQRIKELREALASAYPGVYMTGASFEGVGIPDCIDQGKAAVSDALTYLFS,not soluble
2,MGSDKIHHHHHHMARANRHYIPGQVWHITHRCHKKEFLLKFARDRRRWLHWLFEAKKRFGLQVLNYAVTSNHVHLLVVDTKPEVVAKSIQLIAGRTAQEFNQRKDRKGAFWEDRYHATAIERNEHLVRCLVYIDLNMVRAGVVTHPAEWEMNGYNEIQNPPDRYAIIDRHSLFDACGFPDYGSFAEQHRKWVEDALKKGMNREGHWTESIAVGSSAFITDTQRKMGCSAKGRKLEEQVDGASFLREDAEPYHAHFTGKSEVLSPENAFFWDDYDVVPVG,not soluble
3,VDEIGELADSFNTLTKRVQEAQAMTEGERRKLSSVLAYMTDGVIATDRRGKVILINTPAEKMLRVKHESANGRSIIDVLDIGDTYQFEDLMEVDGSLTMDRSTLDKPYVLRANFSVIQRETG,not soluble
4,MDSKAKQMILSALCKHFSLDPEPFVGGAGESDIKTLYSNVLKASGKEVSAQNNDVLKWLDFAEGFSSDSKDWFSALEKLNLELATKSVLLGNGLTPSAADVAVFSALHSSVLGLSDSDKEKVPHVIRWVNYIQNKEELSTLFAPIPVKLPEFSFEVPKPAIKVETNSNSKKAAEGVKPVDKPDVQPQLGTKKTEPEEPKKNAAKEKDAKKEKKKPAEPEPAKKEAELSVSLLNIQVGLIRKAWKHPSADSLLVEEIDVGEDKVRQVVSGLAKFCSPEDLTNRLVALITNVKPGKLRDVMSQGLVLCASSEDHSVVEPLLPPAGAKPGERVSFSGIEGKPEDVLNPKKKQLEKITPGLYTDENGVATYKGIQFMTSAGPCTSSIPKATIK,soluble
5,MARPETESKTIFGKRLRYVRLALGDPSREALAKSFSMTKNSIAFYERGEREPNLSVLQTYRTLYGVNINWLLTGQGKMFDTEYTKGDFDWNYFIKKIEGLEEILSNSDRSEKLNQEKIESSYEKLQQYLSRQGSTNRYTPKAATSLIDMKAKMANSYALSLFIDLLIRSISQKEVVANQ,not soluble
6,GPGSMSASNSCTVEEVRKEYAKLLDPQEPLDSRMRELYRLKEDCLKTVAGVTVILEAIDTTDSVLLQHELAYNAGQSGREEAVPELERILRTTSYDVVTRHEAAEALGAIGSPLALQVLETHSAPTTEPEASIRETCELALARIAMKETKGDAAVAPPSGCEFVSVDPSPAFSALYSSTDEPVPLTVEELEAVLLDTSGRTRLFRRYMAMFTLRNLATEAAVAALCRGLREDTISALFRHEVAFVLGQLERPSSQPALIAALKDEEEAPMVRHEAAEALGAIADPATLPVLESYATHHEPIVRDSCVVALEMHKYWAHFNSLAHQQQEA,soluble
7,MLSALACNMKYSSHPAAVAAGRGGNRRGGRMYAYERITDPAGFAAIEDEWRALAEACGGGGVFASHAFLLSWAETFGQGRRLAVSLLRHKGALVGALPMFHTGQARAVAAMGEGRAGMAQWLLHPDLPDADAALAALLRPDWLSFWRLEPLETPDAEALERAARRAGLAVRRKATMRACSVTTEGDFDSYLGGLKSKTRQVFRRSERKLAEMEVRDLRSDRDGRAALDAYLAASRASWKGLTGTGYGAAPEGVAFVEKLFERLGPEACYLAARQVGEVAISGRFVLVHDNMHYGMANDFNEEYADLAVGRNSIMQSVRDAFEGGAAGFDFTRCNGLVREVSTDERPLERVLIHRRGDPTLAAFFAARGLRRLRRKASGWQKGRRGVVS,not soluble
8,MAFHWQSKVNVQHVGVDDMVLLPKLTEQSIVENLKKRLQANSIFTYIGPVLISVNPFKQMPYFTEKEMLLYQGAAQYENAPHIYALADNMYRNMLIDNESQCVIISGESGAGKTVNAKFIMNYISRISGGGQKVQHIKDVILQSNPLLEAFGNSATVRNWNSSRFGKYVEIVFSRGGEPIGGKLSNFLLEKSRVVHQNEGDRNFHVFYQLCAGADKNLRSTFGIGELQYYNYLNMSGVFKADDTDDGKEFESTLHAMKVVGVNDQDQLEVLRIVATVLHIGNITFTEENNFAAVSGKDYLEYPAFLLGLTSADIEAKLTGRKMESKWGTQKEEIDMKLNVEQASYTRDAWVKAIYARLFDYLVKKVNDAMNITSQSTSDNFSVGILDIYGFEIFNNNGFEQFCINFVNEKLQQIFIELTLKAEQEEYVREGIKWTEIDYFDNKIVCDLIETKRPPGIMSLLDDTCAQNHGQREGVDRQLLTTLSKSFAGHPHFGPGSDSFVIKHYAGDVTYNVDGFCDRNRDVLYPDLILLMQKSSRPFIQALFPENVAASAGKRPTTFSTKIRTQANTLVESLMKCSPHYVRCIKPNETKRPNDWEESRVKHQVEYLGLRENIRVRRAGFAYRRAFDKFAQRYAIVSPQTWPCFQGDQQRACEIICDSVHMEKNQYQMGKTKIFVKNPESLFLLEETRERKFDGYARVIQKAWRQFSARKQHIKQKEQAADLMYGKKERRRYSLNRNFVGDYIGLEHHPTLQSLVGKRQRVLFACTANKYDRKFRVTKLDLLLTVNHLTLIGKEKVKNGPEKGKIVEVIKRQFDLPQIKSIGLSPYQDDFVILYLGNDDYSSLLETPFKTEFCTALSKAYKERTNGTLHLDFRSSHVVSYKKMKFDFSDGKRTVQFGNDGTSSAEKTLKPNGKVLNVSIGTGLPNTTRPSTERPQGGYTPRRDQLRTSTRRTKQNNQSYGQNGQSQAMRAPVPAHGMNNNYNQTPAPVSTNHQYSQEPARIPVMGNVINQLNNMNLSGNGNSPAGRGPPPARGPKPPPPAKPKLNPVVIAVYPYEAQDVDELSFEAGAEIELMNKDASGWWQGKVNNRVGLFPGNYVKE,not soluble
9,MPTIQQLVRKGRRDKISKVKTAALKGSPQRRGVCTRVYTTTPKKPNSALRKVARVKLTSQVEVTAYIPGEGHNLQEHSMVLVRGGRVKDLPGVRYKIIRGSLDTQGVKNRKQARSRYGAKKEKG,not soluble
10,MFVVKDCCQMIEVLFFIFKTNFKNCFPKMRKSKMYKSEPYSKKTIKIKKATDCGVITNIFSHFNEYVKQTIR,soluble
11,MGSSHHHHHHSSGLVPRGSHMLEDPMEQPINVLNDFHPLNEAGKILIKHPSLAERKDEDGIHWIKSQWDGKWYPEKFSDYLRLHKIVKIPNNSDKPELFQTYKDKNNKRSRYMGLPNLKRANIKTQWTREMVEEWKKCRDDIVYFAETYCAITHIDYGVIKVQLRDYQRDMLKIMSSKRMTVCNLSRQLGKTTVVAIFLAHFVCFNKDKAVGILAHKGSMSAEVLDRTKQAIELLPDFLQPGIVEWNKGSIELDNGSSIGAYASSPDAVRGNSFAMIYIEDCAFIPNFHDSWLAIQPVISSGRRSKIIITTTPNGLNHFYDIWTAAVEGKSGFEPYTAIWNSVKERLYNDEDIFDDGWQWSIQTINGSSLAQFRQEHTAAFEGTSGTLISGMKLAVMDFIEVTPDDHGFHQFKKPEPDRKYIATLDCSEGRGQDYHALHIIDVTDDVWEQVGVLHSNTISHLILPDIVMRYLVEYNECPVYIELNSTGVSVAKSLYMDLEYEGVICDSYTDLGMKQTKRTKAVGCSTLKDLIEKDKLIIHHRATIQEFRTFSEKGVSWAAEEGYHDDLVMSLVIFGWLSTQSKFIDYADKDD,soluble
12,MSLRTVDEKKEQVEKLIQSLDEGVKNFTYNPGRFKALLEMQALMPKYTFRNIMLARIQLPEAQFIASFNRWKELGRNVKKGERSLRILAPRFKKVKDEITGEEETKLIGFLGVPVFDVSQTEGDPLPADRIKLTLDGESQEAVDIFEWVKELAKEDDCPVTIKHADGANGYYSITNHAIVVDSKLSINHRAKTGVHELVHSRVHRNINGTTATERECVAEGVAFIVCSYFGLDTSDYSFEYVNGWSKDGGESLMKYGDIMQKTANLLIEDFERVAEKSQAQAAGEGEKNDSPISAEGHHHHHH,soluble
13,MDREALQHRVLITVSRSSLFRVVEGILEEGKVSSMASSITEYLLNNRYSRERALEHISVYLESELEKSGIDLDDGVDGISLAILFVYEELLENKSEFFSKIQEKSGHALHPPSSDSEE,not soluble
14,MQNPFVPQLVYIEPRALEYPLGQELQDKFENMGIEIRETTSHNQVRNIPGKNHLQQYRNAKSTLVIGVRKTLKFDSSKPSAEYAIPFATGCMGHCHYCYLQTTMGSKPYIRTYVNVEEILDQADKYMKERAPEFTRFEASCTSDIVGIDHLTHTLKRAIEHFGQSDLGKLRFVTKFHHVDHLLDAKHNGKTRFRFSINADYVIKNFEPGTSPLDKRIEAAVKVAKAGYPLGFIVAPIYIHEGWEEGYRHLFEKLDAALPQDVRHDITFELIQHRFTKPAKRVIEKNYPKTKLELDEEKRRYKWGRYGIGKYIYQKDEEHALREALESYIDTFFPNAKIEYFT,not soluble
15,MGSDKIHHHHHHMRKDISTNDKDINDLFLKVVDLVTQARERVATAINIAEVFTKFHIGQYIVEYEQKGETRAEYGKAVLKELSKRLTDRLGDGWSYSTLKNIRQFYIVFSKGLTSGCPKSSQKANQWLADYSKAEEHISEPTFALSWSHYLILMRVENPDARSFYEIECTQQQWSKRQLSRQVGSCLYERLALSRNKDEVMRLAKEGQTIGKPSDIIKNPITLEFLGLKPDAVYSESKLENAIINKMQQFLLELGKGFLFEARQKRFTFDEQHFFVDLVFYNRLLQCYVLIDLKIDKLTHQDLGQMQMYVNYYDRYVKQDFEKPTIGILLCKEKNDALVELTLPKDANIYASAYQLYLPNKALLQAKVKEWIEEFEENEELKKLEENE,not soluble
16,MGCMKSKETFPFPTTLDIDKLHESEEAFIPDDSSQYRTPSPGEQQQVQEVKKLPEPGAVIGALILEFADRLASEIVEDALQQWACENIQYYNIPYIESEGSDTTIN,soluble
17,MGSDKIHHHHHHMEHTRLHNKGLTLDKIFLKTLRTTHNGFLTDGKDRIGYGEFYDRVIAIAEELHRDLGENRTVSVMDWNTLNFATLLYAVPLSGNVLHPVDVRQPPEQVMSSMKEAQSSYLLYSADFGRLADAVKTSGIVKEDNIRSTKEVFDESTDHKPGNAGLPELEEDRIASVLFSSGTTGKPKGVRYRHRDIVLTIWAMETNLSAFPGPARLASSDTVFSLIPFFHLWSWGTLYISTLIGASYVVGGRFDPGSTSDLIKRNGVTWMSMVPTMFNALISWDRNSLDGMKILIGGSAIPSGILNFASDHQIELTGIYGFTDGLAAGIGTSNINGSLSERNADAVNAITPLVFTDFEVEGENNEIKFRSPWIPEGYFNVQEERAYRDGWFYPGDSAEFTQDGKIRIRDRIKDLIKSGGEFIPSALLEYYISEIGDIGDVAVIGVHDDKWIERPVAIYRTRSGATVNDEIIRSYLKDLSNKGLIRDWWIPDRFIPVDSMPMTGTGKIDKKTLRAMLEKGDLRTDRK,not soluble
